Experimental data reported in article PMC8613972.

Assays:
Naja mossambica venom = experiment: biolayer interferometry (wavelength shift, AUC of association curve); conditions: 120-s association phase; n=3; parent: est. 29; read off a plot
Naja siamensis venom = experiment: as above; conditions: 120-s association phase; n=3; parent: est. 23; read off a plot

Substance | response (Naja mossambica venom) [AUC] | response (Naja siamensis venom) [AUC]
Homininae α-1 nAChR orthosteric site (loop C) mimotope, native S187W | 20 | 16
Homininae α-1 nAChR orthosteric site (loop C) mimotope, native S187W; S191A | 38 | 28
Homininae α-1 nAChR orthosteric site (loop C) mimotope, native S187W; T189F | 88 | 50
Homininae α-1 nAChR orthosteric site (loop C) mimotope, native S187W; T189F; S191A | 76 | 53
Homininae α-1 nAChR orthosteric site (loop C) mimotope, native S191A | 35 | 28
Homininae α-1 nAChR orthosteric site (loop C) mimotope, native T189F | 46 | 32
Homininae α-1 nAChR orthosteric site (loop C) mimotope, native T189F; S191A | 47 | 31
